Experimental data as given in paper PMC3166883.
pKd: −log10 of the molar value.

Legend:
[1] = target: MART-1/Melan-A (anchor-modified decamer, modified at position 2) peptide on HLA-A*02:01 (human); assay: SPR
[2] = target: MART-1/Melan-A peptide on HLA-A*02:01 (human); assay: SPR

pKd [1] | pKd [2] | Substance
5.22 | 4.40 | DMF5
4.54 | – | DMF4
